This is an account of results in the Human Domainome abundance scans (Beltran et al. 2025).

± gives the uncertainty stated by the source.

Sequences and labels used below:
B1: Protein piccolo, residues 1058 to 1114; numbered along this chain, Q9Y6V0 (parent)
chain: TCPLCKTELNIGSKDPPNFNTCTECKNQVCNLCGFNPTPHLTEIQEWLCLNCQTQRA

The variants in this data set derive from B1. The data set can be described thus: abundance fitness (aPCA) (normalised: wild type 0, dead -1); higher = more abundant; growth selection in yeast, the domain comes from the species named. Particulars: Homo sapiens.
On to TCPNCKTELNIGSKDPPNFNTCTECKNQVCNLCGFNPTPHLTEIQEWLCLNCQTQRA [L4N], for which the abundance fitness worked out at 0.036 ± 0.21. The result for TCPQCKTELNIGSKDPPNFNTCTECKNQVCNLCGFNPTPHLTEIQEWLCLNCQTQRA [L4Q] reads 0.028 ± 0.19; that for TCPMCKTELNIGSKDPPNFNTCTECKNQVCNLCGFNPTPHLTEIQEWLCLNCQTQRA [L4M], 0.075 ± 0.1. The result for TCPWCKTELNIGSKDPPNFNTCTECKNQVCNLCGFNPTPHLTEIQEWLCLNCQTQRA [L4W] reads -0.576 ± 0.13. Regarding TCPTCKTELNIGSKDPPNFNTCTECKNQVCNLCGFNPTPHLTEIQEWLCLNCQTQRA [L4T], the abundance fitness is -0.051 ± 0.15.

Regarding TCPHCKTELNIGSKDPPNFNTCTECKNQVCNLCGFNPTPHLTEIQEWLCLNCQTQRA [L4H], the abundance fitness turned out to be 0.054 ± 0.2. The result for TCPYCKTELNIGSKDPPNFNTCTECKNQVCNLCGFNPTPHLTEIQEWLCLNCQTQRA [L4Y] reads -0.088 ± 0.14; that for TCPCCKTELNIGSKDPPNFNTCTECKNQVCNLCGFNPTPHLTEIQEWLCLNCQTQRA [L4C], -0.043 ± 0.12; that for TCPPCKTELNIGSKDPPNFNTCTECKNQVCNLCGFNPTPHLTEIQEWLCLNCQTQRA [L4P], -0.693 ± 0.15. Under TCPECKTELNIGSKDPPNFNTCTECKNQVCNLCGFNPTPHLTEIQEWLCLNCQTQRA [L4E] stands -0.288 ± 0.14. Turning to TCPFCKTELNIGSKDPPNFNTCTECKNQVCNLCGFNPTPHLTEIQEWLCLNCQTQRA [L4F], the abundance fitness was -0.376 ± 0.15.

On to TCPKCKTELNIGSKDPPNFNTCTECKNQVCNLCGFNPTPHLTEIQEWLCLNCQTQRA [L4K], for which the abundance fitness was -0.569 ± 0.23.

In the case of TCPDCKTELNIGSKDPPNFNTCTECKNQVCNLCGFNPTPHLTEIQEWLCLNCQTQRA [L4D], the abundance fitness was found to be 0.17 ± 0.13. Under TCPRCKTELNIGSKDPPNFNTCTECKNQVCNLCGFNPTPHLTEIQEWLCLNCQTQRA [L4R] stands -0.054 ± 0.092. The result for TCPSCKTELNIGSKDPPNFNTCTECKNQVCNLCGFNPTPHLTEIQEWLCLNCQTQRA [L4S] reads 0.006 ± 0.092; that for TCPACKTELNIGSKDPPNFNTCTECKNQVCNLCGFNPTPHLTEIQEWLCLNCQTQRA [L4A], 0.087 ± 0.11; that for TCPVCKTELNIGSKDPPNFNTCTECKNQVCNLCGFNPTPHLTEIQEWLCLNCQTQRA [L4V], -0.308 ± 0.095. Under TCPICKTELNIGSKDPPNFNTCTECKNQVCNLCGFNPTPHLTEIQEWLCLNCQTQRA [L4I] stands -0.048 ± 0.19; under TCPGCKTELNIGSKDPPNFNTCTECKNQVCNLCGFNPTPHLTEIQEWLCLNCQTQRA [L4G], 0.067 ± 0.084. As to TCDLCKTELNIGSKDPPNFNTCTECKNQVCNLCGFNPTPHLTEIQEWLCLNCQTQRA [P3D], the abundance fitness is 0.095 ± 0.18. Under TCLLCKTELNIGSKDPPNFNTCTECKNQVCNLCGFNPTPHLTEIQEWLCLNCQTQRA [P3L] stands -0.282 ± 0.092; under TCGLCKTELNIGSKDPPNFNTCTECKNQVCNLCGFNPTPHLTEIQEWLCLNCQTQRA [P3G], -0.137 ± 0.11; under TCVLCKTELNIGSKDPPNFNTCTECKNQVCNLCGFNPTPHLTEIQEWLCLNCQTQRA [P3V], -0.294 ± 0.11. The result for TCALCKTELNIGSKDPPNFNTCTECKNQVCNLCGFNPTPHLTEIQEWLCLNCQTQRA [P3A] reads -0.245 ± 0.11; that for TCYLCKTELNIGSKDPPNFNTCTECKNQVCNLCGFNPTPHLTEIQEWLCLNCQTQRA [P3Y], -0.142 ± 0.16; that for TCWLCKTELNIGSKDPPNFNTCTECKNQVCNLCGFNPTPHLTEIQEWLCLNCQTQRA [P3W], -0.984 ± 0.14.

Turning to TCRLCKTELNIGSKDPPNFNTCTECKNQVCNLCGFNPTPHLTEIQEWLCLNCQTQRA [P3R], the abundance fitness was -0.175 ± 0.084. The result for TCSLCKTELNIGSKDPPNFNTCTECKNQVCNLCGFNPTPHLTEIQEWLCLNCQTQRA [P3S] reads -0.078 ± 0.097; that for TCFLCKTELNIGSKDPPNFNTCTECKNQVCNLCGFNPTPHLTEIQEWLCLNCQTQRA [P3F], -0.216 ± 0.17. Under TCTLCKTELNIGSKDPPNFNTCTECKNQVCNLCGFNPTPHLTEIQEWLCLNCQTQRA [P3T] stands -0.016 ± 0.12; under TCELCKTELNIGSKDPPNFNTCTECKNQVCNLCGFNPTPHLTEIQEWLCLNCQTQRA [P3E], -0.32 ± 0.2; under TCQLCKTELNIGSKDPPNFNTCTECKNQVCNLCGFNPTPHLTEIQEWLCLNCQTQRA [P3Q], -0.506 ± 0.19.

As for TCKLCKTELNIGSKDPPNFNTCTECKNQVCNLCGFNPTPHLTEIQEWLCLNCQTQRA [P3K], the abundance fitness was -0.248 ± 0.17.

Turning to TCCLCKTELNIGSKDPPNFNTCTECKNQVCNLCGFNPTPHLTEIQEWLCLNCQTQRA [P3C], the abundance fitness was found to be 0.148 ± 0.14. The result for TCILCKTELNIGSKDPPNFNTCTECKNQVCNLCGFNPTPHLTEIQEWLCLNCQTQRA [P3I] reads -0.073 ± 0.18; that for TPPLCKTELNIGSKDPPNFNTCTECKNQVCNLCGFNPTPHLTEIQEWLCLNCQTQRA [C2P], -1.1 ± 0.19. As for TKPLCKTELNIGSKDPPNFNTCTECKNQVCNLCGFNPTPHLTEIQEWLCLNCQTQRA [C2K], the abundance fitness was -0.831 ± 0.26. Under TTPLCKTELNIGSKDPPNFNTCTECKNQVCNLCGFNPTPHLTEIQEWLCLNCQTQRA [C2T] stands -0.705 ± 0.16. For TNPLCKTELNIGSKDPPNFNTCTECKNQVCNLCGFNPTPHLTEIQEWLCLNCQTQRA [C2N], the abundance fitness is -0.156 ± 0.18.

Take TYPLCKTELNIGSKDPPNFNTCTECKNQVCNLCGFNPTPHLTEIQEWLCLNCQTQRA [C2Y]: the abundance fitness was -1.15 ± 0.15. For the variant TWPLCKTELNIGSKDPPNFNTCTECKNQVCNLCGFNPTPHLTEIQEWLCLNCQTQRA [C2W], the abundance fitness is -0.904 ± 0.15. TRPLCKTELNIGSKDPPNFNTCTECKNQVCNLCGFNPTPHLTEIQEWLCLNCQTQRA [C2R]: the abundance fitness is -0.991 ± 0.19. The result for TMPLCKTELNIGSKDPPNFNTCTECKNQVCNLCGFNPTPHLTEIQEWLCLNCQTQRA [C2M] reads -0.983 ± 0.27; that for TSPLCKTELNIGSKDPPNFNTCTECKNQVCNLCGFNPTPHLTEIQEWLCLNCQTQRA [C2S], -0.687 ± 0.13; that for TVPLCKTELNIGSKDPPNFNTCTECKNQVCNLCGFNPTPHLTEIQEWLCLNCQTQRA [C2V], -1.11 ± 0.16.

In the case of TCPLCDTELNIGSKDPPNFNTCTECKNQVCNLCGFNPTPHLTEIQEWLCLNCQTQRA [K6D], the abundance fitness is -0.298 ± 0.16.
